In paper PMC11884936, “MDC1 mediates Pellino recruitment to sites of DNA double-strand breaks” (Life Science Alliance, 2025):
Square brackets hold non-standard residues; d marks the D form. pT = C[C@@H](OP(=O)(O)O)[C@H](N)C(=O)O; pS = N[C@@H](COP(=O)(O)O)C(=O)O

T1: Pellino 1 FHA (PELI1 residues 13-273) (human, UniProt Q96FA3 13-273)
T1 construct: Cloned into pGEX-6P1; same preparation for ITC and crystallography by the methods; also called PELI1 (13–273); N-terminal PELI1 fragment; source: E. coli BL21 (DE3), purified (Glutathione Sepharose, 3C cleavage, gel filtration); not shown: GST, N-terminal, cleaved
T1 sequence (looked up): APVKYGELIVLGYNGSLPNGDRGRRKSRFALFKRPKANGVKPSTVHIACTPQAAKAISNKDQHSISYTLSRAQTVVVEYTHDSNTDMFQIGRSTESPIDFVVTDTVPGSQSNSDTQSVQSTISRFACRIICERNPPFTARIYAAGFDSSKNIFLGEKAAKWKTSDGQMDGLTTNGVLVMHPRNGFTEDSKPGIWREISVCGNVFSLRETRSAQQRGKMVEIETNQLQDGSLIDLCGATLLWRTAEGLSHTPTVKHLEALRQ

T2: Pellino 2 FHA (PELI2 residues 15-275) (human, UniProt Q9HAT8 15-275)
T2 construct: Cloned into pGEX-6P1; also called PELI2 (15–273); N-terminal PELI2 fragment; source: E. coli BL21 (DE3), purified (Glutathione Sepharose, 3C cleavage, gel filtration); not shown: GST, N-terminal, cleaved
T2 sequence (looked up): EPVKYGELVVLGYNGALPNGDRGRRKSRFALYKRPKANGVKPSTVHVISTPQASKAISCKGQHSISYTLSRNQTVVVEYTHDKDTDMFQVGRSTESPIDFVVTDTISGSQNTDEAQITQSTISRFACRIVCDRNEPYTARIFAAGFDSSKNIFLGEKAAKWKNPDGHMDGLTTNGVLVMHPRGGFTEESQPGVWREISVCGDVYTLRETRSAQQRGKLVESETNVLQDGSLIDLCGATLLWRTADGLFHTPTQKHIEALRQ


Key:
Test in all cases: ITC; peptide in the syringe (typically 160 μM), protein in the cell (16 μM); 25 mM HEPES pH 7.0, 200 mM NaCl, 1 mM TCEP; single-site binding model
Conditions in all cases: both partners purified
[1] = biological target: T1, Pellino 1 FHA (PELI1 residues 13-273)
[2] = biological target: T2, Pellino 2 FHA (PELI2 residues 15-275)
[3] = biological target: T3, MDC1 BRCT-repeat fragment (human)
T3 construct: MDC1, BRCT-repeat fragment; source: purified

Binder | Kd [1] [nM] | dH [1] [kcal/mol] | stoichiometry N [1] | Kd [2] [nM] | dH [2] [kcal/mol] | stoichiometry N [2] | Kd [3] [nM] | dH [3] [kcal/mol] | stoichiometry N [3]
Ac-AYDLQA[pT]QCFA-NH2 (SMILES CC(=O)N[C@@H](C)C(=O)N[C@@H](Cc1ccc(O)cc1)C(=O)N[C@@H](CC(=O)O)C(=O)N[C@@H](CC(C)C)C(=O)N[C@@H](CCC(N)=O)C(=O)N[C@@H](C)C(=O)N[C@H](C(=O)N[C@@H](CCC(N)=O)C(=O)N[C@@H](CS)C(=O)N[C@@H](Cc1ccccc1)C(=O)N[C@@H](C)C(N)=O)[C@@H](C)OP(=O)(O)O, human MDC1, stretch around T699 with alanine at pT+4; source: synthetic peptide) [MDC1-pT699 phosphopeptide for ITC (AYDLQApTQCFA)] | 2010 | -18.5 | 0.36 | 1120 | -19.9 | 0.55 |  |  | 
Ac-AYEDSE[pT]QPFD-NH2 (SMILES CC(=O)N[C@@H](C)C(=O)N[C@@H](Cc1ccc(O)cc1)C(=O)N[C@@H](CCC(=O)O)C(=O)N[C@@H](CC(=O)O)C(=O)N[C@@H](CO)C(=O)N[C@@H](CCC(=O)O)C(=O)N[C@H](C(=O)N[C@@H](CCC(N)=O)C(=O)N1CCC[C@H]1C(=O)N[C@@H](Cc1ccccc1)C(=O)N[C@@H](CC(=O)O)C(N)=O)[C@@H](C)OP(=O)(O)O, two N-terminal residues that are not the MDC1 residues at this place; human MDC1, stretch around T765; Natural stretch with two added N-terminal residues (AY); The crystallisation methods name only 'the MDC1-pT765 phosphopeptide'; also called MDC1-pT765 (Site 4) phosphopeptide; MDC1 p765 peptide; source: synthetic peptide) [MDC1-pT765 phosphopeptide for ITC and crystallisation (AYEDSEpTQPFD)] | 230 | -22 | 0.62 | 370 | -32.7 | 0.69 |  |  | 
Ac-AYEDEP[pT]QAFA-NH2 (SMILES CC(=O)N[C@@H](C)C(=O)N[C@@H](Cc1ccc(O)cc1)C(=O)N[C@@H](CCC(=O)O)C(=O)N[C@@H](CC(=O)O)C(=O)N[C@@H](CCC(=O)O)C(=O)N1CCC[C@H]1C(=O)N[C@H](C(=O)N[C@@H](CCC(N)=O)C(=O)N[C@@H](C)C(=O)N[C@@H](Cc1ccccc1)C(=O)N[C@@H](C)C(N)=O)[C@@H](C)OP(=O)(O)O) [MDC1-pT719 phosphopeptide for ITC (AYEDEPpTQAFA)] | 1140 | -21.8 | 0.78 | 1220 | -34.7 | 0.52 |  |  | 
Ac-AYSSAS[pT]FLYP-NH2 (SMILES CC(=O)N[C@@H](C)C(=O)N[C@@H](Cc1ccc(O)cc1)C(=O)N[C@@H](CO)C(=O)N[C@@H](CO)C(=O)N[C@@H](C)C(=O)N[C@@H](CO)C(=O)N[C@H](C(=O)N[C@@H](Cc1ccccc1)C(=O)N[C@@H](CC(C)C)C(=O)N[C@@H](Cc1ccc(O)cc1)C(=O)N1CCC[C@H]1C(N)=O)[C@@H](C)OP(=O)(O)O, two N-terminal residues as in the other ITC peptides; IRAK1, stretch around T141 with tyrosine at pT+3; also called IRAK-pT141(+3Y); source: synthetic peptide) [IRAK1-pT141(+3Y) phosphopeptide (AYSSASpTFLYP)] | 420 | -17.4 | 0.7 | 700 | -25.8 | 0.59 |  |  | 
Ac-GGKATQA[pS]QEY-NH2 (SMILES CC(=O)NCC(=O)NCC(=O)N[C@@H](CCCCN)C(=O)N[C@@H](C)C(=O)N[C@H](C(=O)N[C@@H](CCC(N)=O)C(=O)N[C@@H](C)C(=O)N[C@@H](COP(=O)(O)O)C(=O)N[C@@H](CCC(N)=O)C(=O)N[C@@H](CCC(=O)O)C(=O)N[C@@H](Cc1ccc(O)cc1)C(N)=O)[C@@H](C)O) [H2AX-pS139 phosphopeptide for ITC (GGKATQApSQEY)] |  |  |  |  |  |  | 850 | -13.9 | 0.6
Ac-AYEVLA[pT]QPFC-NH2 (SMILES CC(=O)N[C@@H](C)C(=O)N[C@@H](Cc1ccc(O)cc1)C(=O)N[C@@H](CCC(=O)O)C(=O)N[C@H](C(=O)N[C@@H](CC(C)C)C(=O)N[C@@H](C)C(=O)N[C@H](C(=O)N[C@@H](CCC(N)=O)C(=O)N1CCC[C@H]1C(=O)N[C@@H](Cc1ccccc1)C(=O)N[C@@H](CS)C(N)=O)[C@@H](C)OP(=O)(O)O)C(C)C, two N-terminal residues that are not the MDC1 residues at this place; human MDC1, stretch around T752; Natural stretch with two added N-terminal residues (AY); source: synthetic peptide) [MDC1-pT752 phosphopeptide for ITC (AYEVLApTQPFC)] | 1140 | -18.5 | 0.74 | 1060 | -28.2 | 0.69 |  |  | 
